Literature values in article PMC11769735.
Where two headings read alike, the source gives them in different places. One block for each substance: values may come before it.

Tests used:
[1] = biological target: ADP-actin filament barbed end (UniProt P68133)
G-actin [2] = biological target: G-actin (UniProt P68133)
G-actin [3] = biological target: G-actin (UniProt P68133); remark: listed apart in the source

Kd [1]: 13 nM
Substance: Twinfilin (from UniProt Q91YR1)

Kd (G-actin [2]): 50 nM
Substance: Twinfilin C-ADF-H (from UniProt Q91YR1)

Kd (G-actin [3]): 700 nM
Substance: Twinfilin N-ADF-H (from UniProt Q91YR1)
